In the assay the target is T1, epidermal growth factor receptor (EGFR) on EGFR-expressing cell lines (HeLa, HT-29, MRC-5, A549) (UniProt P00533 25-1210).
T1 construct: whole, on cells; EGFR expression in the cell lines was verified by Western blot; HEK293T served as the EGFR-negative line; also called EGF receptor
The assay can be described thus: fluorescence microscopy of Alexa Fluor 488-labelled phage on HeLa cells.

B1: M13KO7 helper phage (no display) (other)
chain: AETVESCLAKPHTENSFTNVWKDDKTLDRYANYEGCLWNATGVVVCTGDETQCYGTWVPIGLAIPENEGGGSEGGGSEGGGSEGGGTKPPEYGDTPIPGYTYINPLDGTYPPGTEQNPANPNPSLEESQPLNTFMFQNNRFRNRQGALTVYTGTVTQGTDPVKTYYQYTPVSSKAMYDAYWNGKFRDCAFHSGFNEDPFVCEYQGQSSDLPQPPVNAGGGSGGGSGGGSEGGGSEGGGSEGGGSEGGGSGGGSGSGDFDYEKMANANKGAMTENADENALQSDAKGKLDSVATDYGAAIDGFIGDVSGLANGNGATGDFAGSNSQMAQVGDGDNSPLMNNFRQYLPSLPQSVECRPFVFSAGKPYEFSIDCDKINLFRGVFAFLLYVATFMYVFSTFANILRNKES
notes: mature; Whole phage particle without a ligand, labelled with Alexa Fluor 488 in the localisation experiment; also called EGF- phage; non-displaying phage
Consider B1, for which the binding result was “no binding (tested: 5×10^7 virions/mL)”.

Source of the values: US20250269056A1 (published 2025).
